From patent publication US20050175581
Changes are numbered by the printed parent chain.

T1: substrate B
T1 chain: KKWLGRVPGGPV

T2: substrate A
T2 chain: LLWLGRVVGGPV

B1: Variant 1 (protein)
chain: IVGGYNCEENSVPYQVSLNSGYHFCGGSLINEQWVVSAGHCYDAVGRDKSRIQVRLGEHNIEVLEGNEQFINAAKIIRHPQYDRKTLNNDIMLIKLSSRAVINARVSTISLPTAPPATGTKCLISGWGNTITNSTASSGADYPDELQCLDAPVLSQAKCEASYPGKITSNMFCVGFLEGGKDSCQGDSGGPVVCNGQLQGVVSWGDGCAQKNKPGVYTKVYNYVKWIKNTIAANS
B2: Variant 2 (protein)
chain: IVGGYNCEENSVPYQVSLNSGYHFCGGSLINEQWVVSAGHCYNGRDLEKSRIQVRLGEHNIEVLEGNEQFINAAKIIRHPQYDRKTLNNDIMLIKLSSRAVINARVSTISLPTAPPATGTKCLISGWGNVRGTWTASSGADYPDELQCLDAPVLSQAKCEASYPGKITSNMFCVGFLEGGKDSCQGDSGGPVVCNGQLQGVVSWGDGCAQKNKPGVYTKVYNYVKWIKNTIAANS
B3: Variant 3 (protein)
chain: B1 chain with D43A, V45T, G46N, R47G, T130R, I131K, T132D, N133F, S134W

What was measured:
[1] = molecular target: T1, substrate B
[2] = molecular target: T2, substrate A

Row | Protein | rate constants of the proteolytic digestion (proportional to kcat/KM), relative to human trypsin I [1] | rate constants of the proteolytic digestion (proportional to kcat/KM), relative to human trypsin I [2]
1 | B1 | the specific activity of variants 1 and 2 is shifted (SEQ ID NOs: 2 and 3, respectively) towards substrate B | 
2 | B2 | the specific activity of variants 1 and 2 is shifted (SEQ ID NOs: 2 and 3, respectively) towards substrate B | 
3 | B3 | serves as a negative control with similar activities as the human trypsin I | serves as a negative control with similar activities as the human trypsin I
